Measured values: publication PMC9050887 (2023)

Target: T1, GSDMD (Mus musculus, UniProt Q9D8T2)
T1 chain: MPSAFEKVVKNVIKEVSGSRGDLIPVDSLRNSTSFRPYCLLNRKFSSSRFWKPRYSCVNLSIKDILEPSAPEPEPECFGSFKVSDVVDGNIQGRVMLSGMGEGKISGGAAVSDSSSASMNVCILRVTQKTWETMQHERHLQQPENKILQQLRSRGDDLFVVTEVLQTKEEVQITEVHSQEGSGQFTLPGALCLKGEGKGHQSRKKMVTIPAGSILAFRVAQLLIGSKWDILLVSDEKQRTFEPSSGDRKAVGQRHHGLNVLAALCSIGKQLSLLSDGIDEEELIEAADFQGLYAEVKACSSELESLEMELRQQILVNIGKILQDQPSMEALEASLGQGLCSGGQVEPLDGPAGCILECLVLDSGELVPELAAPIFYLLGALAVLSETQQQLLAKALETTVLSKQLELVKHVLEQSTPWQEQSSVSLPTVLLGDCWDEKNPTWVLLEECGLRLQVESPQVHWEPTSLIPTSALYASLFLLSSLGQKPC
Assay: SPR

- Kd: 487 nM
B1: CIRP (protein)
chain: MASDEGKLFVGGLSFDTNEQALEQVFSKYGQISEVVVVKDRETQRSRGFGFVTFENIDDAKDAMMAMNGKSVDGRQIRVDQAGKSSDNRSRGYRGGSAGGRGFFRGGRSRGRGFSRGGGDRGYGGGRFESRSGGYGGSRDYYASRSQGGSYGYRSSGGSYRDSYDSYATHNE
